Reference: PMC5461540, “MOB1 Mediated Phospho-recognition in the Core Mammalian Hippo Pathway * ^([image sbox.jpg])” (Molecular & Cellular Proteomics : MCP, 2017)
Where no end group is shown, it is not given here.

B1: MST1 pT353 phosphopeptide (15-mer, crystallization) (peptide)
peptide: VASTMTDGANTMIEH
modifications: also: phosphothreonine at 353 (place in peptide not given here)
notes: MST1 (STK4), human, 15-mer encompassing pT353; also called MST1-pT353 peptide; source: synthetic peptide, bought: Biomatik
B2: MST1 pT367 phosphopeptide (15-mer, crystallization) (peptide)
peptide: DDTLPSQLGTMVINA
modifications: also: phosphothreonine at 367 (place in peptide not given here)
notes: MST1 (STK4), human, 15-mer encompassing pT367; also called MST1-pT367 peptide; source: synthetic peptide, bought: Biomatik

Molecular target: T1, MOB1A wild-type (human, UniProt Q9H8S9-1 2-216)
T1 construct: also called MOB1A WT; full-length nonphosphorylated human MOB1A; source: E. coli BL21 (DE3) CodonPlus RIL, purified (glutathione-Sepharose, TEV cleavage, subtractive IMAC, SEC); not shown: His6, N-terminal, cleaved; GST, N-terminal, cleaved
T1 sequence (looked up): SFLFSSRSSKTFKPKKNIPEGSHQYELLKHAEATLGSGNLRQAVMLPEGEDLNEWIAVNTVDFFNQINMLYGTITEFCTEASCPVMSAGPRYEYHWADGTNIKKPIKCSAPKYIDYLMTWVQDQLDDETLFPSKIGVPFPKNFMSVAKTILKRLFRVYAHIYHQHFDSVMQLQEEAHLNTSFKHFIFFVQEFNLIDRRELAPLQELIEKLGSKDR
Experiment: crystal structure; MOB1A mixed with MST1 phosphopeptide at 1:1.5 mole ratio; hanging drops, 0.1 M MES pH 6.0, 0.2 M LiCl, 20% PEG 6000
Conditions: both partners purified

Binder	binding result
B1	binds
B2	binds
